Data set [1] concerns the molecule itself. The experiment in a line: AUC; sedimentation equilibrium, Beckman XL-A, 15,000 rpm, 20°C, Buffer A, 0.4, 0.2 and 0.1 mg protein/mL, absorbance at 278 nm; global fit to a monomer-dimer-tetramer association model; constants for monomer to dimer (1,2) and dimer to tetramer (2,4).
Data set [2] deals with the molecule itself. The experiment in a line: SEC + native gel or EMSA; hydroxyapatite homogeneously purified TP (first peak) on Sephadex G-100 in Buffer A (20 mM potassium phosphate pH 8.0, 1 mM DTT, 1 mM EDTA, 1 mM PMSF), 4°C, calibrated with standard proteins; native-PAGE on 10% gel; native about 100 kDa against about 52 kDa on SDS-PAGE. (In general: In EMSA bound probe runs differently from free probe, usually more slowly.)

B1: native human hepatic thymidine phosphorylase (enzyme, human (endogenous in liver), UniProt P19971 11-482, looked up)
chain: APPAPGDFSGEGSQGLPDPSPEPKQLPELIRMKRDGGRLSEADIRGFVAAVVNGSAQGAQIGAMLMAIRLRGMDLEETSVLTQALAQSGQQLEWPEAWRQQLVDKHSTGGVGDKVSLVLAPALAACGCKVPMISGRGLGHTGGTLDKLESIPGFNVIQSPEQMQVLLDQAGCCIVGQSEQLVPADGILYAARDVTATVDSLPLITASILSKKLVEGLSALVVDVKFGGAAVFPNQEQARELAKTLVGVGASLGLRVAAALTAMDKPLGRCVGHALEVEEALLCMDGAGPPDLRDLVTTLGGALLWLSGHAGTQAQGAARVAAALDDGSALGRFERMLAAQGVDPGLARALCSGSPAERRQLLPRAREQEELLAPADGTVELVRALPLALVLHELGAGRSRAGEPLRLGVGAELLVDVGQRLRRGTPWLRVHRDGPALSGPQSRALQEALVLSDRAPFAAPSPFAELVLPPQQ
modifications: N-terminal blocked by an unknown moiety (neither N-formyl nor pyrrolidone carboxylic acid)
notes: thymidine phosphorylase / PD-ECGF, human liver, native subunit of about 50 kDa (49,882 by electrospray MS); DPSPEPKQ = 28-35; Native tissue protein; also called TP; human liver TP; source: purified from human liver (autopsy material) by DEAE-cellulose, Phenyl Sepharose CL-4B and hydroxyapatite chromatography; also used as DEAE-cellulose partially purified fraction and as 50,000 x g liver cytosol
What is called stoichiometry N is a count of units in the complex or per binding partner. B1: in data set [1], the “Ka (1,2), monomer to dimer” value was 581000 M⁻¹ and the “Ka (2,4), dimer to tetramer” value stood at 10100 M⁻¹. The “stoichiometry N” value in data set [2] was 2.

(Values after PMC6107277, “Distinct substrate specificity and physicochemical characterization of native human hepatic thymidine phosphorylase” (PLoS ONE, 2018).)
